Source: patent US20160040149A1, “Compositions Having Dicamba Decarboxylase Activity and Methods of Use” (priority 2013, published 2016)

B1: 57 (protein)
chain: MAKLICVEEHVLDPAVGAATQSLVRAEAPYLPDWGSRVLDGRHVADRSRPHVIAPSESARKALEMGEPRLADMDAASIDMQVLSYGGFPQLLPAAQAIDLNRAANDKLALAAQAHPARFAGFATLPWQAPEAAARELERAVKQLGLKGALINGRPGDTFLDDARYAPILAAFDELKVPLYVHPGLPLPAVQAPYYGGFERELSARLAMFAWGWHNEAGIQVVRMLLAGVFDRHPRLQLISGHWGEMVPFFLQRLEDSIPQEASGLQRPIVQTYREHVYISPSGMFTLPHFQFIHALMGAQRILYSIDYPYQSLDGARAFIERLPISDTDKALIAHRNAERLLHL
modifications: Collimonas fungivorans
B2: 53 (protein, listed as Granulicella tundricola)
chain: MARTITLEEHFVTDSFLRATGAYDKPAPPWLAQLQPKLLDLGDGRIAAMDEAGIDLQVLSLAALGFDALDAATATPLVHDINDELAAAVRANPTRLAAFASLALKDPQSAARELERAIQKLGFRGVLLDGTTDGLFLDDPRFTPVFEAAVALNVPIYLHPAPPPESVFDTYFTGLPEGVGQMLSIAGWGWHAETALHTLRLITNGVFDRYPTLQLIIGHMGEMLPMALARTSKALSHAARLRQPVAAYFQSNIHLTTSGYFTQPPLRCALDVVGIDRLMFSIDYPFSANTLGRDYLTELEQTLTPEDLAKLIHRNAESLLNLS
B3: 58 (protein)
chain: MARVIALEEHYATTEFLRGPGTWLASRPGIVEPAGDLGDGRIAAMDQAGVDLAVLSLAAPGVEQLDPDDAVRLARDCNDQLAAAVRRYPDRLAGFATVPTSAPDRAADELERAVRGLGFPGAVINGHSRGRYLDDPFFEPVLARAAELQAPIYLHPTIPPAGVIESSYAGFAEPVTFALATVGWGWHINTATHALRMILGGVFDRHPSLQMIIGHMGEATSFMLPRFDATLKPELTGLNHPVSSYLRENFHYTFANFNDHATYANLVAQVGIERVAFSADYPFGSMVDARAFLDGLPLSDDERAAISHRNAEKLLGL
modifications: Mycobacterium colombiense
B4: 50 (protein, listed as Streptomyces sp.)
chain: MARIVTLEEHWTDPAVTAAGMPNLLDHVPGYAAAFDPDTGMPYPRHPELLEDLGAARIADMDRHGITTQVLSLVNTFLPADVAPRLTAAANDAMAAAVEAFPGRFAAFATLPTAVPGAAADELRRCVGELGFVGTMIMGRTDGEFLDQPRFDPILRAASDLSVPVYLHPAPPPVAVSEASYAGGLSPAVSAAFRLAAWGWHQETAVHLLHLVLAGVLDRYPGLQFVLGHWGEFIPFYLDRLDESMPRRMTGLDRTFREYFRDNVFITPSGMFSQAQLRYCADTVGTDRIIHSVDFPMLGNEGAVSFLTDSHLSREDQEKIAHGNADALLGLG
B5: 60 (protein, listed as Catenulispora acidiphila)
chain: MARGFVRTAVVPGFWDAGWRGAGQPGGMRVDVHAHLFPAAYLDLLDDFRQDGGVGTREVRALGGGDGERELRLRLAAMDAVGVDVQLLSTCPQGPYTGDPTAAVEAARCANVALAQTVAQYPERLRALAALPLPHILASVDELNRAMEQDGMLGAAVGTSILGRPLSHPDFEPLFAALNRRKGVLFVHPIGESAGSPLMQASKLDRVIGYAAEVSTAILQLFQAGLTVKYPDIRIIAPHMGGYLPFLIQRLDRHRDWYLPKDAPSAGQLMRGIAYDTANPLPAALRLTAEVVGPERLLLGTDYPFEQGPSLRDHIEYILAAGLPEAQAKMIVDVNAADFLDMRSGAEQPPV
B6: 62 (protein)
chain: MAVGGKNFRDVTDQVWCPKKRIEDMDREGVDIQVLSPIPVTFSYWAKPEEAESMARIQNDFIAETVLAYPDRFVGLGTVPMQDGETAIREMERCITELNLHGIEIGTNVNGKNLDDPSFIEFFRMAEKWQVPIFIHPWETLGRDRMPHHNFMYTVGMPSETALAAATLIWSGIMEKFPRLKVCFAHGGGSFPYILPRLDQGWKVWPHLRLTTHPPSYYAKKFYFDSLNYDPINLKYMIERFGHEKIFMGSDYPFLLREVDPGKVIDETASLSEEQKAAMLGGNAAEFLNIDIKKRGVAYAESTNT
modifications: Bacillus thuringiensis serovar pulsiensis
B7: 59 (protein)
chain: MAPSVIDAHAHFLPGSLVTALRSRSDAPDIRTDSNGGESFGIYRTRMPYGRTYDALDVRLARMDELGVDRQILSLPGLFGIDSRPVSQALPLVRAFNDGVADLVRKHPDRFSGIAALPLADLDAAQEEYRRARGDLGLSGLILPGDTFVSVAAAERVRPLFELAATIGGLIFVHPGPLPDETGSAVDAPAPHTDSVVHRRVTVDIQNRMTEVMVTLALTDFLAPYPSVPVQVANLGGSLPFVIERMDHVYALRNPEAPPPSLSLRSLYVDAASLGPRAIALAAEVYGADRVLFGSDYPIFDDGRCLDAVRQTRLSPDARALIAGGNAARMLTQT
modifications: alpha proteobacterium
B8: 49 (protein, listed as Streptomyces sp.)
chain: MAKIIALEEHFSDPAVAKAGAARARALSPGFAASYSPASGLPYSPSPEVLENLAEKRLADMDAGGITMQVLSGLGAQTVPADVAPALVAGSNDKAAAAVRAHPDRFAAFAALPTATPEAAVAELDRSVNELGFVGTLIMGRTEGEFLDAPRFEPILARAAALKVPVFLHPGVPPREITDSNYAAGLPTGIGTRLQTAAWGWHQETAVHFLHLVHSGVLDRYPDLQFILGHWGEMIPFYLDRVDEALPQRATGLDRSFHEYFRENVYLAPSGMWSQAQLRFCLETVPLERIVFAVDYPFIGNEGAVPFLEKAELPQADKRKIAHENAERLLGL
B9: 52 (protein, listed as Streptomyces sp.)
chain: MAKIIALEEHFSDPAVAKAGAARAQALSPGFAASYSPASGLPYSPSPEVLENLAEKRLADMDAGGITMQVLSGLSAQTVPADVAPALVAGSNDKAAAAVRAHPDRFAAFAALPTAAPEAAVAELDRSVNELGFVGTLIMGRTEGEFLDAPRFEPILARAAALKVPVFLHPGVPPREITDSNYAAGLPTGIGTRLQTAAWGWHQETAVHFLHLVHSGVLDRYPDLQFILGHWGETIPFYLDRVDEALPQRATGLDRSFHEYFRENVYLAPSGMWSQAQLRFCLETFPLERIVFAVDYPFIGNEGAVPFLEKAELPEADKRKIAHENAERLLGL
B10: 54 (protein, listed as Streptomyces sp.)
chain: MAKIIALEEHFSDPAVAKAGAARAQALSPGFAASYSPASGLPYSPSPEVLENLAEKRLADMDAGGITMQVLSGLGAQTVPADVAPALVAGSNDKAAAAVRAHPDRFAAFAALPTAAPEAAVAELDRSINELGFVGTLIMGRTEGEFLDAPRFEPILARAAALKVPVFLHPGVPPREITDSNYAAGLPTGIGTRLQTAAWGWHQETAVHFLHLVHSGVLDRYPGLQFILGHWGEMIPFYLDRVDEALPQRATGLDRSFHEYFRENVYLAPSGMWSQAQLRFCLETVPLERIVFAVDYPFIGNEGAVPFLEKAELPEADKRKIAHENAERLLGL
B11: 48 (protein, listed as Amycolatopsis mediterranei)
chain: MASMKLYGLEEHFVTADVIEAWRRRDPGLAEPMMKWAVASDITPALLDVDGGRIAAMDDAGIDTTVLSLTTPGLQNLDAAEAVALQAPTNDLIAAAVRRHPGRFQGFATLATSAPAAAADELRRAVTELGLNGALVNANSRGRALDAPGFWDIYEAAEDLRAPVYLHPGVPVPAVTEAYYRGFGEPVNSMLATGAFGWHYDAGLTILRMIVAGVFDRFPGLQVILGHWGEVVLFYLDRVAAMDKLTALRRPIAEYFRSNIFITPGGISSHKYLRWSLETVGVERIMYASDYPFNTERAGSARRFLDTAPVDEAGRERIAYRNWEELIAGIRR
B12: 55 (protein, listed as Serratia sp.)
chain: MAKIICLEEHTLDKALVMASMPAALEQAPFLSDWGKTVTDGNLPDRSRPQIEKNDLINIKGADIGRGRLDDMDVAGITMQVLSVGGFPHLISAAEGVDLNRAANDRLADAVNAHPDRFAAFATLPWAQPDSAEKELERAVKELGFKGALLNGRPSTHFLDHPDYDGLLARFNALGVPLYLHPGLPVRSVQQAYYGGFSDEVTARLSMFGWGWHHEAGIHLLRLILSGAFDKYPNLQVISGHWGEMLPFWLQRLDDSLPQAATGLRRTIAQTFKEQVYVTPSGMLTLPHFQFIYALLGAERIIFSVDYPYQTLDGVKAFIQSLPVPEEAKEAIAFRNAERLLGLTS
B13: 56 (protein)
chain: MAKIICLEEHYLDSELGRACMPVALEQAPFLGDWGKTVADGHNPDRSRPQIEKNALINAKGADLGSRRLRDMDEAGITLQILSVGGFPQLAPEDEAVTLNTAANDRLAEAVRNHPDRFAAFATLPWAQPKDAENELVRAVEKLGFKGALLNGRPSSCFLDHPDYDSLLSRFNKLNVPLYLHPGLPLKSVQQAYFTGFSAEVNARLSMFGWGWHHEAGIHLLRLMLSGAFDKYPNMQVISGHWGEMLPFWLQRLDDSLPLAATGLSRTLTRTFQEHVYVTPSGMLTLPHFKFIYELMGAERILFSVDYPYQTLDGVKTFIDSLPVNKAEKEAIAFRNAERLLGITA
modifications: Enterobacter aerogenes
B14: 61 (protein, listed as Gordonia amarae)
chain: MATGAGSGVPSPADRVIVRSPGVIDVHAHAVLPMSLGCAGAAGPEIGYREDGSPFFRVGEYVLNGVRYEGSAFMDPEVRVAAMDAAGIGLQMISPNPITYFTRLDARSATDYARAHNDAIAEAAGRHPGRLVGAAQLPMQDVPAAIAELERSVRELGLVAAYIDTDIGDRTLDAPELDDFYSAAVELDVPVFIHPSPVGQEGPPDDTRLRRFDLDLLLGFSYDETLAVAALVFGGVLERHPALDVCLSHGGGTLAFVAGRFARAVAKPRAWVPEFLVENGIESYLRRLWLDTHVHSAGSLRLLIDTVGTDRLVFGTNFAGWDADGATEVDALGDLRETTTANAAHLLRLGRA
B15: 51 (protein, listed as Mycobacterium gilvum)
chain: MARVIAIEEHYAHPGLQPAEALANLRKHPQLARIQDKLEDLGAGRLADMDAAGIDMQVLSHTVPGAEALPAAQAVDVVRQTNDDLAEVIAAHPDRFAGFAALPMRDPQAAATELQRAVGTLGFCGAMINGLIEGRFLDHPDFTPLLSTAADLGVPLYLHPSFPPPQVAQIYFGGLPPVLADLLATAGWGWHAETALHVLRLISTGVFDRLPELRVIVGHMGEMIPFALARIDTVLSPMTELRQPVAQYFQTNVWFTTSGYTTFPPLQCALSTVGIDRLIFSVDYPYTDNASARALLDTAPISPVDREKLAHATVEALLRV

Test: Saturation mutagenesis of SEQ ID NO:109: dicamba decarboxylation activity of point mutants (CO2 released), fold of backbone (Tables 7, 8, Megatable 1)
Details: decarboxylation activity (CO2 released) of point mutant vs unmutated backbone protein; backbone SEQ ID NO: 109

Molecule | Fold Activity [fold]
B1 | 2
B2 | 1.6
B3 | 1.5
B4 | 1.7
B5 | 1.6
B6 | 1
B7 | 0.9
B8 | 2
B9 | 1.9
B10 | 1.4
B11 | 1.5
B12 | 1.5
B13 | 1.3
B14 | 2.4
B15 | 1.7
